Results published in the RNAGym collection of RNA variant scans (doi:10.1073/pnas.2313332121).

B1: TPR t1 (parent)
chain: GACCAAUCUGCCCUCAGAGCUCGAGAACAUCUUCGGAUGCAGAGGAGGCAGGCUUCGGUGGCGCGAUAGCGCCAACGUCCUCAACCUCCAAUGCAUCCCACCACAUGAUGAUGCCUGAAGAGCCUUGGUUUUUUG

Variants of: B1
Assay: polymerase ribozyme fitness, log enrichment relative to wild type (log ratio); higher = more active; in vitro selection for triplet polymerase activity
In short: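 To select mutant libraries of each subunit of a heterodimeric triplet polymerase ribozyme, built by PCR and transcribed, each was annealed with a biotinylated primer, partner subunit and triplets, then incubated frozen at −7 °C. Extended constructs were gel-excised, captured on streptavidin beads and amplified by RT-PCR, in one round carried out in triplicate. Illumina sequencing of input and output libraries kept genotypes with ≥10 input reads and ≥1 read per output. Fitness is the base-2 logarithm of genotype enrichment relative to wild-type enrichment, from inverse-variance-weighted replicate averages.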

Variant | polymerase ribozyme fitness (log ratio)
C82U C86G A121G | 1.16
C85G G110A | -3.38
C82U U96A | -1.57
C86U C101G | -2.55
C86A U129A | -2.31
A84U A103U G110C | -3.57
A83U G120U | -1.06
U81C U112A U125G | -0.145
U81A U109A | -5.72
U81A A121U | 1.04
C82G C86U C102U U112G | -3.94
U81A C89A | -2.06
C86U C98U G117C | -5.99
A83C U109C | -4.51
U81C C85A C89A | -4.24
C85A C88U U96G G113U | -5.67
U81C C89A A111G | -2.87
A84C G120A | 0.816
C85U C123U | -1.28
C86U U92C C115A C124A G127A | -1.31
C85U U106G | -2.74
A84C U96C | -0.0472
A83G A118U | 0.587
A83G U116A | -3.6

Variant | polymerase ribozyme fitness (log ratio)
C86G C115U | -2.67
A84U C88G C115U U126A | -3.84
U81A C85U | -2.56
A83U A108U | -5.5
C86G C98U | -1.59
C85A C88U | -2.64
C82A C88A G113A | -1.71
C80U U81A C89U U126G | -3.21
C86U C115G | -1.57
C82U C88U | -0.335
C86G C94U G110A U129A | -4.63
A83C A100U G120A U130C | -3.75
A84G G128C | -3.48
C82A U126A | -2.16
C85A C89U U92G G117A | -4.94
C86U G120C | 1.51
C82G G117U C123G C124U | -1.39
C82U U96C C98U C115A G117C | -6.13
A84G G113U G135A | -4.51
A84G C102A | -3.38
U81G C101A U106A | -2.9
C86A U109A | -5.39
C85U C89G | -1.76
C82A U112A | 1.06

Variant | polymerase ribozyme fitness (log ratio)
C86G C123A | -0.0336
C86G C123U | 0.323
C85A G127U | -4.56
C85A G127C | -4.59
C85A G110A | -2.98
C82A G93C C115U G122A | -3.46
C82G G110C | -4.38
C82G C86A | -0.475
C82A U129C | -0.227
C82A U129A | -2.69
A83U C99A G117C U129G | -5.87
A84U U112A G128U | -1.28
C85G C94U | -2.67
A84U G113A U132C G135A | -1.31
A83C C115A | 0.0144
C82A G120C | -0.101
A84G A95U C104A A121C | -2.33
A84U C101G U125G | -2.42
C82A G110C A121U | -3.02
C82U A119U | -0.592
C86G G120C | 0.661
A83U A91U U92G A111C U130C | -3.89
C85G G122A | -1.82
C86G C97U C115G | -4.24

Variant | polymerase ribozyme fitness (log ratio)
A83C C94U G128A | -2.4
U81G G113C | -4.85
C80U U92C | -2.1
A83G U92C C94A | -4.59
U81G A84C U116A G120C | -3.83
C85U A111U G122U | -4.09
C85A C97A | -7.29
C86A U92A C115A C123G | -2.27
C85U C114U | -3.18
C86A C104U | 0.0777
C85G G113U | -4.31
C82A A111U | -3.3
U81A C97U | -1.89
U81A G93C | -2.88
C85G C86U U92A | -5.3
U81C C88A A90U C104G G120U | -7.44
C82U G110U | -1.15
C86G A103G | -5.43
A84U G135U | -1.03
C86G U133A | -0.824
C86G G122U | -1.75
U81C C88U | 0.221
C82U C88A A100U U112C | 0.47
A84U A121C | 2.22

Variant | polymerase ribozyme fitness (log ratio)
C85G U112A C115U | -2.5
A83C C102A | -2.03
C82A U133A | -0.323
C85G C88A C101A | -2.28
C82G C97U | -1.16
A84G G93U G120U | -2.23
C82G C124U | 1.29
U81A U131G | -0.926
A83U U132C | -0.0917
C82A C89A A105U U112G | -4.43
A83G C86G A91C C94U U130A | -3.59
A83U U96A | -0.525
A84G G117U G135U | -4.65
A84U U129A | -1.65
A83U A91C | -0.743
C86G C102A | -3.09
C85G U96G A105U | -4.68
A83G U129G | -1.68
A83C U126A | -1.84
A84U U92G | -3.25
A83C G117A | -1.33
U81C G117A A119U | -3.73
A84C U96C A121G U125A | 1.66
C86A G93C | -2.88

Variant | polymerase ribozyme fitness (log ratio)
A84U U96A C99G C114A | -6.17
A84U C102A A103G U109G C114U | -3.45
A84C C94A | -1.23
C82U G113A | -1.1
A83G G113U | -3.23
C85A U106A U125A | -3.11
A83C A95U U116C | -1.65
C86G C101U | -0.616
C82A C85A | -1.3
A83C G93A A111C G113U | -4.96
U81C G93C | -1.57
C82G A83C | -0.655
C85G U112A U126A | -1.28
C86U U116C | -0.139
A84G C115U | -2.86
A84U C101A U116G A121U | -0.796
C82A U109G | -4.53
A84G G117U | -3.75
C85A G107A U112G C114U G120U | -7.47
C82G C89A | -2.23
C82G U129G | -1.36
C82U U134G | 0.46
C85U C94G C104U | -1.9
C82G A119G | 0.749

Variant | polymerase ribozyme fitness (log ratio)
C82G A119U | -0.606
C86U A95C | -1.49
C82A C115G U130G | -1.11
C85U A91C | -2.1
C85G C89U G110U | -2.09
C86U C98A | -4.48
C86A U106A | 0.119
A84G U92C U106G G113C | -4.32
C82U U133A | -0.572
C82U C88A G120U G128A | -1.98
A84G C85A G127U | -5.16
U81C U87C A100U | -1.38
C85G U112A | 0.357
A83C G107C | -2.05
C85G C115U | -1.86
A84C C85G U133C | -0.825
A83C C114U | -1.78
C82U A95C U106A | -0.318
U81C C102U | -2.2
C85G C89U | -0.78
U81C A83G | -1.15
U81A C101A G110C U131G G135U | -7.53
C82G U130A | -1.07
